Publication PMC4847777

Target: T1, RamA (His6-RamA) (Corynebacterium glutamicum (ATCC 13032?)) (UniProt Q8NML3)
T1 sequence: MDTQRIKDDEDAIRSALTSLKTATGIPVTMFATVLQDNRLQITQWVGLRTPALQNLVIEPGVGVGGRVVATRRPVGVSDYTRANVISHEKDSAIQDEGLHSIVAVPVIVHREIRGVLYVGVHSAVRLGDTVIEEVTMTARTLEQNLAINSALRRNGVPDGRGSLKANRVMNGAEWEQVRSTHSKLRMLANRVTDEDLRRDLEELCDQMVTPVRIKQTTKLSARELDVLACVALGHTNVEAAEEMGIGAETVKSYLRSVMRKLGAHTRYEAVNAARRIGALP
Experiment: EMSA
Settings: 10 mM Tris, 1 mM dithioerythritol, 1 mM EDTA, 1 ug poly[d(I-C)], 10% glycerol, 20 ul, about 70 ng DNA, 20 min at room temperature, pH not stated; 2% agarose in …

## TGAAGTATTGGGATCACGCCACGCAAGATCGCGGGCATTTGCTCTAAACCACACGAGCAGGGCTGTTTGAAAAGCTGTAAATGACATGACCTAAATGATTGTACTGACTGGCACTTTAGGTCATATGTCACACCGAGTGGAATAATAAAGCTTATGCCTTTGCGTAATGTTGAGGTACCCCG (double strand) [PF3]
  binding: no binding
